In the RNAGym collection of RNA variant scans (doi:10.7554/elife.80360):

B1: Hairpin Ribozyme (parent)
chain: GUCCUCUUUCACGUGCGCGUGAAAGAGAGAAGUGAACCAGAGAAACACACGUUGUGGUAUAUUACCUGGUA

Variants of: B1
Assay: self-cleavage, relative activity (ratio to wild type); higher = more cleavage; co-transcriptional

Variant | self-cleavage
U58A U70G | 0.493
U58A U70C | 0.728
U58A U70A | 0.588
G56U U62G | 0.104
U58A G69C | 0.246
U58A G69A | 0.201
U60C C66U | 0.451
U60C C66A | 0.31
G56A G68A | 0.119
U53G A61G | 0.313
U53G A61C | 0.0932
U55G A71G | 0.241
U55G G69C | 0.257
U60C U63C | 0.314
A59C C66G | 0.253
G57U U62G | 0.176
U52G U63A | 0.139
U52G U63G | 0.134
G54C G57U | 0.217
G54C G57C | 0.155
U53G A59C | 0.166
U53G A59G | 0.114
G54U U58A | 0.302
G57A U70G | 0.111

Variant | self-cleavage
U55G U70G | 0.17
U55G U70A | 0.351
U58A A61C | 0.0874
U58A A61U | 0.216
U58A A61G | 0.27
U52G U70C | 0.605
A59G U70G | 0.161
A59G U70C | 0.192
U58C U63G | 0.27
U58C U63A | 0.212
G54C G56A | 0.116
G54C G56U | 0.166
U55C G57C | 0.12
A59U G68C | 0.0787
A59G U63G | 0.0571
A59G U63A | 0.262
U53G U55C | 0.369
U53G U55A | 0.269
U55G G57C | 0.126
U55C G56U | 0.321
G54C C66U | 0.254
U55A A59G | 0.163
U55A A59C | 0.252
U53C A59U | 0.166

Variant | self-cleavage
U53C A59C | 0.217
G57U G69C | 0.0914
G57U G69U | 0.215
A59G U60A | 0.164
A59G U60G | 0.311
A59G U60C | 0.238
U55A G57C | 0.146
U55A G57A | 0.148
U60C A71G | 1.08
U60C A71C | 1.66
U60C A71U | 1.18
G54U G68A | 0.22
G54U G68C | 0.212
U58A U67C | 0.118
U58A U67A | 0.273
G56C G68U | 0.173
G54U A61U | 0.268
G54U A61G | 0.139
G54U G69A | 0.122
A59G C66A | 0.228
U58C U60C | 1.19
U58C U60A | 0.845
G57U C65U | 0.25
G57U C65A | 0.271

Variant | self-cleavage
U60A U63G | 0.136
G54C A71G | 0.438
A59G U62C | 0.201
G54U | 0.626
G54A | 0.583
G54C | 0.433
U60C G68U | 0.204
U60C G68A | 0.26
A59C C65U | 0.23
A59C C65A | 0.0683
A59C C65G | 0.246
U58G U63A | 0.149
U53G G54U | 0.49
U53G G54C | 0.551
U53A G54A | 0.68
U52G U67G | 0.156
A59G G68U | 0.235
A59G G68A | 0.135
G54A U58A | 0.453
G54U A71C | 1.1
G54U U70A | 0.657
U58A C66A | 0.18
A59U A61G | 0.166
G57A U67A | 0.2

Variant | self-cleavage
U60C A64U | 0.183
U60C A64C | 0.201
G54C U55A | 0.196
G57C C65A | 0.0756
U60A C65A | 0.807
U55A G68U | 0.17
G57A C66A | 0.215
U58G G68U | 0.19
G57A U60C | 0.205
U58C G68U | 0.169
U58C G68A | 0.301
U58G U62C | 0.187
U58G U62A | 0.232
U53C G57U | 0.234
U52G U53G | 1.39
U52G U53A | 0.857
A59C A71G | 0.119
G56U U63G | 0.0375
U52G U58A | 0.452
U52G U58C | 0.707
U53C A64U | 0
U53C A64C | 0.278
U53C U70A | 1.09
G57C U67A | 0.257

Variant | self-cleavage
U60A C66G | 0.191
G56C U63C | 0.17
G56C U63G | 0.175
G56C U63A | 0.0712
U55A A61G | 0.156
G54U U67A | 0.207
U52G G69C | 0.478
G57C C66U | 0.101
G54C A64U | 0.155
U53C U58C | 1.26
G56U U58G | 0.0453
U53G G69U | 0.279
G56A A61U | 0.166
U55C C65A | 0.142
U53C U60G | 0.557
U53C U60A | 0.635
U53A U60A | 1.08
G54C A61C | 0.183
G56C U58G | 0.234
G57A U63C | 0.151
G57A U63G | 0.182
U58C U62G | 0.242
U58C U62C | 0.369
G56A G69C | 0.108

Variant | self-cleavage
U52G U60C | 1.08
U55C U70C | 0.195
U55C U70A | 0.143
U53A C66U | 0.649
G57U U63C | 0.146
G57U U63G | 0.291
G57A U62C | 0.117
G57A U62A | 0.212
U60A U70G | 0.553
U58C A61C | 0.145
G57U A61U | 0.203
U58C U70G | 0.759
U58C U70A | 0.897
G57U G68U | 0.196
G54C A59C | 0.195
G57U U58A | 0.309
G54C G68A | 0.187
A59U C65U | 0.13
U55A G56U | 0.148
U55A G56C | 0.203
G54U U60C | 0.834
G57C A61U | 0.161
U58G U60C | 0.731
U60C U62G | 0.155

Variant | self-cleavage
G56U A64U | 0.173
U53G A71C | 1.29
U53G A71U | 0.635
U58G C65G | 0.146
G56C U62A | 0.263
U55A G69A | 0.172
U55A G69U | 0.146
U55G U67C | 0.181
G54C U63G | 0.119
G56A U63A | 0.133
G56A U62G | 0.293
G56C U60C | 0.156
G56C U60A | 0.106
G56U U60G | 0.231
G56U U60A | 0.219
G56U U60C | 0.135
G57U A71U | 0.223
U58C A64G | 0.502
U58C A64C | 0.178
U55C U58C | 0.475
U55C U58G | 0.175
G56U U70G | 0.0481
G56C U67G | 0.203
G56C U67A | 0.205

Variant | self-cleavage
U60A U67G | 0.187
U60A U67C | 0.155
U53A A71C | 1.41
U58A U62G | 0.296
G57C U63C | 0.272
G57U C66U | 0.244
G57U C66A | 0.219
G54U C65A | 0.561
G54U C65G | 0.145
G56A U70C | 0.247
G56A U70A | 0.223
G54C G69A | 0.0998
G54A C65G | 0.107
G54A C65A | 0.497
U53G G56A | 0.195
U53G G56C | 0.125
U53G G56U | 0.223
G54A U60G | 0.204
G54A A61U | 0.254
U55A A71C | 0.697
U55A A71G | 0.14
G56C A71U | 0.119
U53A U58A | 0.746
G54A A59U | 0.148

Variant | self-cleavage
G54A A59G | 0.17
U52G G68U | 0.136
U60C U67C | 0.329
G54A G57U | 0.27
G54A G57A | 0.182
G54C U70G | 0.155
G54C U70A | 0.216
U60A A61G | 0.216
U55A U58A | 0.273
G54U U63A | 0.267
G54U U63G | 0.159
G54U U55G | 0.399
G54U U55C | 0.18
G56A A59U | 0.125
G56C A61U | 0.177
G54C U60G | 0.27
U53G U62C | 0.281
U55C A59U | 0.239
G54A G69C | 0.177
G54A G69U | 0.143
G57C U58C | 0.258
G57C U58A | 0.222
U55G A64U | 0.158
U55G A64C | 0.153

Variant | self-cleavage
U55G U63G | 0
A59U C66U | 0.191
U55C A71U | 0.16
U55C A71C | 0.596
U60A A71C | 1.24
U60A A71U | 0.616
U53G U63G | 0.156
G57C U62G | 0.155
U53A U62G | 0.146
U53A U62A | 0.266
G56A U60G | 0.186
U53A A64U | 0.143
A59U A71C | 0.153
G56U A61C | 0.134
G56U A61G | 0.178
U58A G68A | 0.272
U58A G68U | 0.134
U53G U58A | 0.394
U53G A64U | 0.144
U60C G69C | 0.326
G56A G57A | 0.136
G56A G57C | 0.128
U55A C66A | 0.188
U55C C66G | 0.191

Variant | self-cleavage
U55C C66A | 0.13
U55A C65G | 0.19
G56U C65G | 0.104
G56U C65U | 0.276
G56U C65A | 0.203
A59U U67A | 0.141
G57A G68A | 0.119
A59U U70C | 0.199
A59U U70G | 0.159
G57C A64C | 0.178
G57A C65U | 0.231
U58G A61U | 0.0693
G54A G68U | 0.227
U55A A64C | 0.13
G57C A59C | 0.183
U55C A61C | 0.0408
A59G U67C | 0.128
G57U U70A | 0.266
U58C U67A | 0.231
U55G U58A | 0.199
G57C G69U | 0.0905
U53C U62G | 0.122
G56A U67A | 0.197
U53A A59C | 0.0694

Variant | self-cleavage
G56A A71G | 0.245
G56A C66G | 0.114
G56A C66U | 0.296
U55G C66U | 0.422
U60C A61G | 0.228
G57U U67G | 0.152
U58G U67C | 0.0792
U58G U67A | 0.181
G54C C65A | 0.194
A59C G68A | 0.124
A59C G68U | 0.138
U55A U62G | 0.0995
U60A G68U | 0.189
U60A G68C | 0.236
G56C G57U | 0.153
G56C G57C | 0.173
G54A U63C | 0.216
A59G A61G | 0.082
A59G A61U | 0.141
U55C A64G | 0.132
U55C A64C | 0.102
G54C U67C | 0.109
G54U U62C | 0.172
U53A U63C | 0.156

Variant | self-cleavage
U58C C66U | 0.546
U58C C66A | 0.201
U58A U60C | 0.715
G54C U62A | 0.186
G54C U62C | 0.108
G57A A71U | 0.187
U58G U70A | 0.849
G57A A59U | 0.0919
U53C C65U | 0.274
G54U A59C | 0.0613
U53G G57A | 0.178
U53G G57U | 0.164
G54U C66A | 0.228
G54U C66U | 0.211
G54U A64G | 0.4
G54U A64C | 0.128
G57C U70C | 0.216
G57C U70A | 0.184
U53A G57A | 0.14
U53A G57U | 0.181
U52G U62G | 0.0994
U52G U62C | 0.126
